Consider six molecules from doi:10.1101/2024.07.09.602679 (bioRxiv, 2024).

B1: full-length Brr1, HT-tag removed (natural protein, S. cerevisiae, UniProt Q99177 1-341, looked up)
chain: MKRGESQAPDAIFGQSRAFALSDSSVNPDVIEYLKSVRQEALRTNAISIKNHMNLQKRTRHKSSMYDDEDEGALKRHAISPSLIRLQRNVEIWVRWFNSVKATVLTNAYEFTGYEDETLDLLLLFLKNYLEDMPSKCTTVEKIISVLNQHSFPEKAEEKEENLQIDEEWAKNILVRLEKTKIDSVEDVKKVITEGDKHELVGYNQWFQYLINNEPQHTTFHEKITSKQLWVLIKYMSNTWIKEIHKKGRHYRRLQDWLFYILVHTPERVTAEYTSILRDLGKKCLELIQKKPVEAHENKITLPKEMAELNVEIPAAVENMTITELTVSVIAVNYGQKDLIE
B2: full-length Brr1 with N-terminal His6-TEV tag (natural protein, S. cerevisiae, UniProt Q99177 1-341, looked up)
chain: B1 chain
B3: SmD3/B subcomplex, HT-tag removed (complex, S. cerevisiae)
chain 1: MSKIQVAHSSRLANLIDYKLRVLTQDGRVYIGQLMAFDKHMNLVLNECIEERVPKTQLDKLRPRKDSKDGTTLNIKVEKRVLGLTILRGEQILSTVVEDKPLLSK
chain 2: MTMNGIPVKLLNEAQGHIVSLELTTGATYRGKLVESEDSMNVQLRDVIATEPQGAVTHMDQIFVRGSQIKFIVVPDLLKNAPLFKKNS
B4: SmD1/D2 subcomplex, HT-tag removed (complex, S. cerevisiae)
chain 1: MKLVNFLKKLRNEQVTIELKNGTTVWGTLQSVSPQMNAILTDVKLTLPQPRLNKLNSNGIAMASLYLTGGQQPTASDNIASLQYINIRGNTIRQIILPDSLNLDSLLVD
chain 2: MSSQIIDRPKHELSRAELEELEEFEFKHGPMSLINDAMVTRTPVIISLRNNHKIIARVKAFDRHCNMVLENVKELWTEKKGKNVINRERFISKLFLRGDSVIVVLKTPVE
B5: Lot5 (residues 1-227) with N-terminal His6-TEV tag (domain or fragment, S. cerevisiae, UniProt P34234 1-227, looked up)
chain: MMKKKPKCQIARTKPSVENVIPYNQFKKTQPRFNGNFSALNNEEYIILFGGGRDLILGSLTPCSSSHLSNQANPQDTSEYGTDLFILNSCIIIWFNGLGYGLEIPYSSVLYHASRRLPDGREGLQLEILLTLERDEVLDMLYQSLAPQACEFDGEEAHAFTVRSVELTIRPKYSIYDRHYNNEIETLFTFENFGVNRGDDLVNNCNEALAVCMDLHGEDVQDQDQEQ
B6: SmF/E/G subcomplex, HT-tag removed (complex, S. cerevisiae)
chain 1: MSESSDISAMQPVNPKPFLKGLVNHRVGVKLKFNSTEYRGTLVSTDNYFNLQLNEAEEFVAGVSHGTLGEIFIRCNNVLYIRELPN
chain 2: MSNKVKTKAMVPPINCIFNFLQQQTPVTIWLFEQIGIRIKGKIVGFDEFMNVVIDEAVEIPVNSADGKEDVEKGTPLGKILLKGDNITLITSAD
chain 3: MVSTPELKKYMDKKILLNINGSRKVAGILRGYDIFLNVVLDDAMEINGEDPANNHQLGLQTVIRGNSIISLEALDAI

In experiment [1] the target is T1, D1/D2/F/E/G pentamer (5Sm) (S. cerevisiae, UniProt Q02260 1-109; Q06217 1-110; P54999 1-86; Q12330 1-94; P40204 1-77).
T1 sequence (looked up) 1: B4 chain 1
T1 sequence (looked up) 2: B4 chain 2
T1 sequence (looked up) 3: B6 chain 1
T1 sequence (looked up) 4: B6 chain 2
T1 sequence (looked up) 5: B6 chain 3
The experiment in a line: SEC.

For experiment [2], the target named is T1, D1/D2/F/E/G pentamer (5Sm). The experiment in a line: pull-down.
Experiment [3] addresses T2, full-length Lot5 with N-terminal His6-TEV tag (S. cerevisiae, UniProt P34234 1-306).
T2 sequence (looked up): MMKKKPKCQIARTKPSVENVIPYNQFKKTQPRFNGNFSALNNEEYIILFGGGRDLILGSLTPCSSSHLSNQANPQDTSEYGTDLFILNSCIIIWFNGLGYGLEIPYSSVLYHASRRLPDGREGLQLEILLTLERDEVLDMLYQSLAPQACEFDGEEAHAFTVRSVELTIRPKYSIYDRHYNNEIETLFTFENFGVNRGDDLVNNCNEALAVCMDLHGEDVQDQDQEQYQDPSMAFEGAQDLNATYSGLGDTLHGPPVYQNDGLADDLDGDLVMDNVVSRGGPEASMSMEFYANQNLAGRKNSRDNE
The experiment in a line: pull-down.

The target in experiment [4] is B5. Put plainly: pull-down.
The target of the next experiment is T3, Brr1/5Sm heterohexamer (S. cerevisiae, UniProt Q99177 1-341; Q02260 1-109; Q06217 1-110; P54999 1-86; Q12330 1-94; P40204 1-77).
T3 sequence (looked up) 1: B1 chain
T3 sequence (looked up) 2: B4 chain 1
T3 sequence (looked up) 3: B4 chain 2
T3 sequence (looked up) 4: B6 chain 1
T3 sequence (looked up) 5: B6 chain 2
T3 sequence (looked up) 6: B6 chain 3
The experiment in a line: SEC.

Experiment [5] has as its target B1. The experiment in a line: SEC.
Experiment [6] has as its target T4, Brr1Δ(122-197) with N-terminal His6-TEV tag (S. cerevisiae, UniProt Q99177 1-341, Δ(122-197)).
T4 sequence (looked up): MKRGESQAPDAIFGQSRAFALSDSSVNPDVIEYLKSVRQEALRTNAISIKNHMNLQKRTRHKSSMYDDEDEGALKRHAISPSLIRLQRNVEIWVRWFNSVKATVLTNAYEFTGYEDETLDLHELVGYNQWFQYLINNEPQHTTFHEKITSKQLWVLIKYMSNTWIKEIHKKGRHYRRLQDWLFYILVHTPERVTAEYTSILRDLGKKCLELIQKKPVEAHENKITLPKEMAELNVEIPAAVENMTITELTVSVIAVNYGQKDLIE
Put plainly: pull-down.

For experiment [7], the target named is B2. Put plainly: pull-down.

Turning to B1, in experiment [1], the binding result is “binds”.
Turning to B2, the binding result in experiment [2] is reported as “binds”.
Turning to B3, the binding result in experiment [3] and in experiment [4] was “binds” each time.
As for B4, the binding result in experiment [3] and in experiment [4] was “binds” in each case.
As for B5, the binding result (in experiment [1]; in the experiment with Brr1/5Sm heterohexamer) was “binds” each time.
Turning to B6, the binding result in experiment [5], in experiment [6] and in experiment [7] was “binds” throughout.
